Read-outs that look alike come from different tables or passages of the source.
B1: ssDNA (SS) (ssDNA)
DNA: GGGTGAACCTGCAGGTGGGCAAAGATGTCCTAGCAATGTAATCGTCAAGCTTTATGCCGT
B2: Holliday junction (HJ) (structured_DNA)
DNA 1: B1 DNA
DNA 2: ACGCTGCCGAATTCTACCAGTGCCAGCGACGGACATCTTTGCCCACCTGCAGGTTCACCC
DNA 3: ACGGCATAAAGCTTGACGATTACATTGCTACATGGAGCTGTCTAGAGGATCCGACTATCG
DNA 4: CGATAGTCGGATCCTCTAGACAGCTCCATGGTCGCTGGCACTGGTAGAATTCGGCAGCGT

Key:
Experiment in all cases: EMSA
F3 = F3 (human, UniProt Q9BXW9 841-1178)
F2 [1] = target: T1, F2 (human, UniProt Q9BXW9 589-840)
F4 [2] = target: T2, F4 (human, UniProt Q9BXW9 1179-1451)
F3Mut1aa [3] = target: T3, F3Mut1aa (human, UniProt Q9BXW9 841-1178, K865A)
F1Mut5aa (K-A) [4] = target: T4, F1Mut5aa (K-A) (human, UniProt Q9BXW9 1-588, S29A;K30A;K31A;T32A;K34A)
FANCD2 WT full-length [5] = target: T5, FANCD2 WT full-length (human, UniProt Q9BXW9 1-1451)
F1 = F1 (human, UniProt Q9BXW9 1-588)
FANCD2 WT full-length [6] = target: T5, FANCD2 WT full-length; remark: listed apart in the source
F2 [7] = target: T1, F2; remark: listed apart in the source
F4 [8] = target: T2, F4; remark: listed apart in the source
F3Mut1aa [9] = target: T3, F3Mut1aa; remark: listed apart in the source
F1Mut5aa (K-A) [10] = target: T4, F1Mut5aa (K-A); remark: listed apart in the source

T5 sequence (Q9BXW9 whole entry): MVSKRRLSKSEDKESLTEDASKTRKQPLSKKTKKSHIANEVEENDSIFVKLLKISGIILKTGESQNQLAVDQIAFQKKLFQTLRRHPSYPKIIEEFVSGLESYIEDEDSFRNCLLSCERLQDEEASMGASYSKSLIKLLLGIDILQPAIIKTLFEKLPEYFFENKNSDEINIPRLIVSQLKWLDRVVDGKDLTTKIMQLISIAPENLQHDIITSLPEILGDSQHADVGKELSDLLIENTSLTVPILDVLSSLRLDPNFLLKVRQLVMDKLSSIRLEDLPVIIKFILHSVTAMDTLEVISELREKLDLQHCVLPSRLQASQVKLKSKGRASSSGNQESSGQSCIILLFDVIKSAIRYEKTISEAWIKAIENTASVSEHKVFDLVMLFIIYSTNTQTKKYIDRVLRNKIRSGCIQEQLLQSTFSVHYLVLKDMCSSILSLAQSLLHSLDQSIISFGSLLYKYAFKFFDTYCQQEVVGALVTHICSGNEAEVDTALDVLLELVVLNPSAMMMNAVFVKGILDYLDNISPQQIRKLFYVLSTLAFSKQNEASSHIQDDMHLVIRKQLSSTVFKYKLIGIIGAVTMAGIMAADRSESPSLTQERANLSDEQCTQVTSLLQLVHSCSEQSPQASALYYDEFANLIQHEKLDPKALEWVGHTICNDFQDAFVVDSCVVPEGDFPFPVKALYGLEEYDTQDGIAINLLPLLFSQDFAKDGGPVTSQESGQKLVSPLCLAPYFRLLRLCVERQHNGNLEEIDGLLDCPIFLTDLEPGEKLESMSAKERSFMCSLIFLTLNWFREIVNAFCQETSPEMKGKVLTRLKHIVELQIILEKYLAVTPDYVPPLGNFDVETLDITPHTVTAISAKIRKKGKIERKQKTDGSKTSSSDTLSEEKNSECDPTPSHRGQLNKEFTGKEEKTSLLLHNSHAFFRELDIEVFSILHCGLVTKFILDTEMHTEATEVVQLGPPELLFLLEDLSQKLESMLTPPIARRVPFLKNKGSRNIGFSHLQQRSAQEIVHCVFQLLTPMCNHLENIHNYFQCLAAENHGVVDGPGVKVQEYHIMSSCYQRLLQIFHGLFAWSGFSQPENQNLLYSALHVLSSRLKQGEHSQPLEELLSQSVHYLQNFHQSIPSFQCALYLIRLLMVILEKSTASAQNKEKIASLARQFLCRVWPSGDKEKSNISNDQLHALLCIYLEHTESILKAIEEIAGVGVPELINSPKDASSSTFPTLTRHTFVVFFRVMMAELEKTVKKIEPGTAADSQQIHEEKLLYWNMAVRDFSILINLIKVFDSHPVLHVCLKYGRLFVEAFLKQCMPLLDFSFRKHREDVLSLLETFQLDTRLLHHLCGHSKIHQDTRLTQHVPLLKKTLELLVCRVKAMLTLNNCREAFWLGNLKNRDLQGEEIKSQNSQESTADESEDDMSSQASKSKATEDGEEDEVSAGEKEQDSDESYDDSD
T4 sequence (Q9BXW9 1-588 S29A/K30A/K31A/T32A/K34A): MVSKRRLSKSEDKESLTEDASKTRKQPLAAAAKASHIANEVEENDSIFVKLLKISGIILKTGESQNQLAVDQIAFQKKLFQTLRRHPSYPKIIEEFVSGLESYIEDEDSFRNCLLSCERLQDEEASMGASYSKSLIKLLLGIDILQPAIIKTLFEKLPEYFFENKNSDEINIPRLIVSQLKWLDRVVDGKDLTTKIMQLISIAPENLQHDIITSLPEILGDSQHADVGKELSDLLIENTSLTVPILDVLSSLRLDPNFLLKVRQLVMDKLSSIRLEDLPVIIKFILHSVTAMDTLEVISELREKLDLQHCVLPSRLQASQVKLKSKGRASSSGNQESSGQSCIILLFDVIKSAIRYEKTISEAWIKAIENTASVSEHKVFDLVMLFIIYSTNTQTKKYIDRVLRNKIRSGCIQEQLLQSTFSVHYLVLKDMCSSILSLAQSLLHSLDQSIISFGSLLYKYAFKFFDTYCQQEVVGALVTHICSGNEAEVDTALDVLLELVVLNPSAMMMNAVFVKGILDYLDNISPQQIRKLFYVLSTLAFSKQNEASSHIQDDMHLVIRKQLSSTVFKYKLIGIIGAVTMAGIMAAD
T1 sequence (Q9BXW9 589-840): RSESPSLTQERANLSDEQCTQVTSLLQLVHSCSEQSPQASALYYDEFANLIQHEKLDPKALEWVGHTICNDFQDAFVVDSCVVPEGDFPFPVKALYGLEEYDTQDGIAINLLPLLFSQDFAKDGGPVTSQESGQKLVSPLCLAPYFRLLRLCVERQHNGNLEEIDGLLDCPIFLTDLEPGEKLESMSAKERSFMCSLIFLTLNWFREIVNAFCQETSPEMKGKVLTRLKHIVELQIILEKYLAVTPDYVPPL
T2 sequence (Q9BXW9 1179-1451): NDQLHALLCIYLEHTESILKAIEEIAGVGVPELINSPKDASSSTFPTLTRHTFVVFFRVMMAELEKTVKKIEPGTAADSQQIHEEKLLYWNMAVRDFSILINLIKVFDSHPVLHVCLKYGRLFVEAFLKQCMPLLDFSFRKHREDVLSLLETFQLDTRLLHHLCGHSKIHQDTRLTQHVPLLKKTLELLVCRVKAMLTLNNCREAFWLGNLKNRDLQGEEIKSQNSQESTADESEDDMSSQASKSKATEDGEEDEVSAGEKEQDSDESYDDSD
T3 sequence (Q9BXW9 841-1178 K865A): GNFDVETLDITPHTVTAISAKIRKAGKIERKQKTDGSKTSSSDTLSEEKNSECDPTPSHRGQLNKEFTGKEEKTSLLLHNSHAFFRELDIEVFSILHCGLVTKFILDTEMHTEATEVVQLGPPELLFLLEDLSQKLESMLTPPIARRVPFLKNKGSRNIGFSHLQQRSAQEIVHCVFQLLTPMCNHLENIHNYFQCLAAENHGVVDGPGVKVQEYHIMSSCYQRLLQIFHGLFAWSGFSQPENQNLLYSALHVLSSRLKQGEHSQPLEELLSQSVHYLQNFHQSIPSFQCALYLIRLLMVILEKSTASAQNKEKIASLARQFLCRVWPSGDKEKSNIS
Sequence of F3 (Q9BXW9 841-1178): as the sequence (Q9BXW9 841-1178 K865A) above, with A25K counted along it
Sequence of F1 (Q9BXW9 1-588): as the sequence (Q9BXW9 1-588 S29A/K30A/K31A/T32A/K34A) above, with A29S, A30K, A31K, A32T, A34K counted along it

Binder	binding result (F3)	binding result (F2 [1])	binding result (F4 [2])	binding result (F3Mut1aa [3])	binding result (F1Mut5aa (K-A) [4])	binding result (FANCD2 WT full-length [5])	binding result (F1)	binding result (FANCD2 WT full-length [6])	binding result (F2 [7])	binding result (F4 [8])	binding result (F3Mut1aa [9])	binding result (F1Mut5aa (K-A) [10])
B1	binds	no binding	no binding	no binding	no binding	binds	binds					
B2								binds	no binding	no binding	no binding	no binding

Reference: paper PMC5737651
